A word on the Kd: it is the constant that tells how readily two partners part at equilibrium. Lower therefore signals tighter binding.

Data on 13 molecules can be found in publication PMC4609182 (The EMBO Journal, 2015).

B1: Phosphorylated Parkin (phospho-Ser65 in the Ubl domain) (enzyme, rat, UniProt Q9JK66 1-465, looked up)
chain: MIVFVRFNSSYGFPVEVDSDTSIFQLKEVVAKRQGVPADQLRVIFAGKELQNHLTVQNCDLEQQSIVHIVQRPQRKSHETNASGGDKPQSTPEGSIWEPRSLTRVDLSSHILPADSVGLAVILDTDSKSDSEAARGPEAKPTYHSFFVYCKGPCHKVQPGKLRVQCGTCRQATLTLAQGPSCWDDVLIPNRMSGECQSPDCPGTRAEFFFKCGAHPTSDKDTSVALNLITNNSRSIPCIACTDVRNPVLVFQCNHRHVICLDCFHLYCVTRLNDRQFVHDAQLGYSLPCVAGCPNSLIKELHHFRILGEEQYNRYQQYGAEECVLQMGGVLCPRPGCGAGLLPEQGQKKVTCEGGNGLGCGFVFCRDCKEAYHEGECDSMFEASGATSQAYRVDQRAAEQARWEEASKETIKKTTKPCPRCNVPIEKNGGCMHMKCPQPQCKLEWCWNCGCEWNRACMGDHWFDV
modifications: phosphoserine at 65
B2: Full-length Parkin, unmodified (enzyme, rat, UniProt Q9JK66 1-465, looked up)
chain: MIVFVRFNSSYGFPVEVDSDTSIFQLKEVVAKRQGVPADQLRVIFAGKELQNHLTVQNCDLEQQSIVHIVQRPQRKSHETNASGGDKPQSTPEGSIWEPRSLTRVDLSSHILPADSVGLAVILDTDSKSDSEAARGPEAKPTYHSFFVYCKGPCHKVQPGKLRVQCGTCRQATLTLAQGPSCWDDVLIPNRMSGECQSPDCPGTRAEFFFKCGAHPTSDKDTSVALNLITNNSRSIPCIACTDVRNPVLVFQCNHRHVICLDCFHLYCVTRLNDRQFVHDAQLGYSLPCVAGCPNSLIKELHHFRILGEEQYNRYQQYGAEECVLQMGGVLCPRPGCGAGLLPEQGQKKVTCEGGNGLGCGFVFCRDCKEAYHEGECDSMFEASGATSQAYRVDQRAAEQARWEEASKETIKKTTKPCPRCNVPIEKNGGCMHMKCPQPQCKLEWCWNCGCEWNRACMGDHWFDV
B3: Full-length L266K Parkin (enzyme, rat, UniProt Q9JK66 1-465, looked up)
chain: MIVFVRFNSSYGFPVEVDSDTSIFQLKEVVAKRQGVPADQLRVIFAGKELQNHLTVQNCDLEQQSIVHIVQRPQRKSHETNASGGDKPQSTPEGSIWEPRSLTRVDLSSHILPADSVGLAVILDTDSKSDSEAARGPEAKPTYHSFFVYCKGPCHKVQPGKLRVQCGTCRQATLTLAQGPSCWDDVLIPNRMSGECQSPDCPGTRAEFFFKCGAHPTSDKDTSVALNLITNNSRSIPCIACTDVRNPVLVFQCNHRHVICLDCFHKYCVTRLNDRQFVHDAQLGYSLPCVAGCPNSLIKELHHFRILGEEQYNRYQQYGAEECVLQMGGVLCPRPGCGAGLLPEQGQKKVTCEGGNGLGCGFVFCRDCKEAYHEGECDSMFEASGATSQAYRVDQRAAEQARWEEASKETIKKTTKPCPRCNVPIEKNGGCMHMKCPQPQCKLEWCWNCGCEWNRACMGDHWFDV
B4: H302A Parkin R0RBR (domain or fragment, rat)
chain: PTYHSFFVYCKGPCHKVQPGKLRVQCGTCRQATLTLAQGPSCWDDVLIPNRMSGECQSPDCPGTRAEFFFKCGAHPTSDKDTSVALNLITNNSRSIPCIACTDVRNPVLVFQCNHRHVICLDCFHLYCVTRLNDRQFVHDAQLGYSLPCVAGCPNSLIKELAHFRILGEEQYNRYQQYGAEECVLQMGGVLCPRPGCGAGLLPEQGQKKVTCEGGNGLGCGFVFCRDCKEAYHEGECDSMFEASGATSQAYRVDQRAAEQARWEEASKETIKKTTKPCPRCNVPIEKNGGCMHMKCPQPQCKLEWCWNCGCEWNRACMGDHWFDV
B5: Parkin R0RBR module (RING0, RING1, IBR, RING2), wild type (domain or fragment, rat)
chain: PTYHSFFVYCKGPCHKVQPGKLRVQCGTCRQATLTLAQGPSCWDDVLIPNRMSGECQSPDCPGTRAEFFFKCGAHPTSDKDTSVALNLITNNSRSIPCIACTDVRNPVLVFQCNHRHVICLDCFHLYCVTRLNDRQFVHDAQLGYSLPCVAGCPNSLIKELHHFRILGEEQYNRYQQYGAEECVLQMGGVLCPRPGCGAGLLPEQGQKKVTCEGGNGLGCGFVFCRDCKEAYHEGECDSMFEASGATSQAYRVDQRAAEQARWEEASKETIKKTTKPCPRCNVPIEKNGGCMHMKCPQPQCKLEWCWNCGCEWNRACMGDHWFDV
B6: K161N Parkin R0RBR (domain or fragment, rat)
chain: PTYHSFFVYCKGPCHKVQPGNLRVQCGTCRQATLTLAQGPSCWDDVLIPNRMSGECQSPDCPGTRAEFFFKCGAHPTSDKDTSVALNLITNNSRSIPCIACTDVRNPVLVFQCNHRHVICLDCFHLYCVTRLNDRQFVHDAQLGYSLPCVAGCPNSLIKELHHFRILGEEQYNRYQQYGAEECVLQMGGVLCPRPGCGAGLLPEQGQKKVTCEGGNGLGCGFVFCRDCKEAYHEGECDSMFEASGATSQAYRVDQRAAEQARWEEASKETIKKTTKPCPRCNVPIEKNGGCMHMKCPQPQCKLEWCWNCGCEWNRACMGDHWFDV
B7: R275A Parkin R0RBR (domain or fragment, rat)
chain: PTYHSFFVYCKGPCHKVQPGKLRVQCGTCRQATLTLAQGPSCWDDVLIPNRMSGECQSPDCPGTRAEFFFKCGAHPTSDKDTSVALNLITNNSRSIPCIACTDVRNPVLVFQCNHRHVICLDCFHLYCVTRLNDAQFVHDAQLGYSLPCVAGCPNSLIKELHHFRILGEEQYNRYQQYGAEECVLQMGGVLCPRPGCGAGLLPEQGQKKVTCEGGNGLGCGFVFCRDCKEAYHEGECDSMFEASGATSQAYRVDQRAAEQARWEEASKETIKKTTKPCPRCNVPIEKNGGCMHMKCPQPQCKLEWCWNCGCEWNRACMGDHWFDV
B8: K369A Parkin R0RBR (domain or fragment, rat)
chain: PTYHSFFVYCKGPCHKVQPGKLRVQCGTCRQATLTLAQGPSCWDDVLIPNRMSGECQSPDCPGTRAEFFFKCGAHPTSDKDTSVALNLITNNSRSIPCIACTDVRNPVLVFQCNHRHVICLDCFHLYCVTRLNDRQFVHDAQLGYSLPCVAGCPNSLIKELHHFRILGEEQYNRYQQYGAEECVLQMGGVLCPRPGCGAGLLPEQGQKKVTCEGGNGLGCGFVFCRDCAEAYHEGECDSMFEASGATSQAYRVDQRAAEQARWEEASKETIKKTTKPCPRCNVPIEKNGGCMHMKCPQPQCKLEWCWNCGCEWNRACMGDHWFDV
B9: R314A Parkin R0RBR (domain or fragment, rat)
chain: PTYHSFFVYCKGPCHKVQPGKLRVQCGTCRQATLTLAQGPSCWDDVLIPNRMSGECQSPDCPGTRAEFFFKCGAHPTSDKDTSVALNLITNNSRSIPCIACTDVRNPVLVFQCNHRHVICLDCFHLYCVTRLNDRQFVHDAQLGYSLPCVAGCPNSLIKELHHFRILGEEQYNAYQQYGAEECVLQMGGVLCPRPGCGAGLLPEQGQKKVTCEGGNGLGCGFVFCRDCKEAYHEGECDSMFEASGATSQAYRVDQRAAEQARWEEASKETIKKTTKPCPRCNVPIEKNGGCMHMKCPQPQCKLEWCWNCGCEWNRACMGDHWFDV
B10: R334A Parkin R0RBR (domain or fragment, rat)
chain: PTYHSFFVYCKGPCHKVQPGKLRVQCGTCRQATLTLAQGPSCWDDVLIPNRMSGECQSPDCPGTRAEFFFKCGAHPTSDKDTSVALNLITNNSRSIPCIACTDVRNPVLVFQCNHRHVICLDCFHLYCVTRLNDRQFVHDAQLGYSLPCVAGCPNSLIKELHHFRILGEEQYNRYQQYGAEECVLQMGGVLCPAPGCGAGLLPEQGQKKVTCEGGNGLGCGFVFCRDCKEAYHEGECDSMFEASGATSQAYRVDQRAAEQARWEEASKETIKKTTKPCPRCNVPIEKNGGCMHMKCPQPQCKLEWCWNCGCEWNRACMGDHWFDV
B11: R271A Parkin R0RBR (domain or fragment, rat)
chain: PTYHSFFVYCKGPCHKVQPGKLRVQCGTCRQATLTLAQGPSCWDDVLIPNRMSGECQSPDCPGTRAEFFFKCGAHPTSDKDTSVALNLITNNSRSIPCIACTDVRNPVLVFQCNHRHVICLDCFHLYCVTALNDRQFVHDAQLGYSLPCVAGCPNSLIKELHHFRILGEEQYNRYQQYGAEECVLQMGGVLCPRPGCGAGLLPEQGQKKVTCEGGNGLGCGFVFCRDCKEAYHEGECDSMFEASGATSQAYRVDQRAAEQARWEEASKETIKKTTKPCPRCNVPIEKNGGCMHMKCPQPQCKLEWCWNCGCEWNRACMGDHWFDV
B12: W403A Parkin (enzyme, rat, UniProt Q9JK66 1-465, looked up)
chain: MIVFVRFNSSYGFPVEVDSDTSIFQLKEVVAKRQGVPADQLRVIFAGKELQNHLTVQNCDLEQQSIVHIVQRPQRKSHETNASGGDKPQSTPEGSIWEPRSLTRVDLSSHILPADSVGLAVILDTDSKSDSEAARGPEAKPTYHSFFVYCKGPCHKVQPGKLRVQCGTCRQATLTLAQGPSCWDDVLIPNRMSGECQSPDCPGTRAEFFFKCGAHPTSDKDTSVALNLITNNSRSIPCIACTDVRNPVLVFQCNHRHVICLDCFHLYCVTRLNDRQFVHDAQLGYSLPCVAGCPNSLIKELHHFRILGEEQYNRYQQYGAEECVLQMGGVLCPRPGCGAGLLPEQGQKKVTCEGGNGLGCGFVFCRDCKEAYHEGECDSMFEASGATSQAYRVDQRAAEQARAEEASKETIKKTTKPCPRCNVPIEKNGGCMHMKCPQPQCKLEWCWNCGCEWNRACMGDHWFDV
B13: W403A Parkin R0RBR (domain or fragment, rat)
chain: PTYHSFFVYCKGPCHKVQPGKLRVQCGTCRQATLTLAQGPSCWDDVLIPNRMSGECQSPDCPGTRAEFFFKCGAHPTSDKDTSVALNLITNNSRSIPCIACTDVRNPVLVFQCNHRHVICLDCFHLYCVTRLNDRQFVHDAQLGYSLPCVAGCPNSLIKELHHFRILGEEQYNRYQQYGAEECVLQMGGVLCPRPGCGAGLLPEQGQKKVTCEGGNGLGCGFVFCRDCKEAYHEGECDSMFEASGATSQAYRVDQRAAEQARAEEASKETIKKTTKPCPRCNVPIEKNGGCMHMKCPQPQCKLEWCWNCGCEWNRACMGDHWFDV

For the first assay, the target named is Phosphorylated ubiquitin (phospho-Ser65 ubiquitin) (UniProt P0CG48 1-76, phosphoserine at 65). Put plainly: ITC; Parkin constructs titrated with pUb; 20°C; 50 mM Tris–HCl pH 7.4, 150 mM NaCl, 1 mM TCEP; stoichiometry determined experimentally. The note with it: both partners purified.
B1 yielded a dissociation constant (Kd) of 17 nM.

B2 gave a Kd of 431 nM.

B3 yielded a Kd of 37 nM.

As for B4, the Kd is 1330 nM.

In turn, B5 returned a Kd of 22 nM.

The target of the next assay is His-tagged phosphorylated ubiquitin (UniProt P0CG48 1-76, phosphoserine at 65). The assay can be described thus: pull-down; 1 nmol His-tagged pUb on Ni-NTA resin, 15 min with 1 nmol R0RBR variant; TBS, 2 mM BME, 0.02% Igepal 630; SDS–PAGE, Coomassie. The note with it: both partners purified.
Consider B6, for which the binding result is reported as “binds”.

As for B7, the binding result is “binds”.

Regarding B8, the binding result is “binds”.

For the molecule B9, the binding result is recorded as “binds”.

Consider B10, for which the binding result is on record as “binds”.

On to B11, for which the binding result is given as “binds”.

The target of the next assay is T1, UbcH7 (E2 ubiquitin-conjugating enzyme) (UniProt P68036 1-154). Put plainly: NMR titration; 15N-UbcH7 with unlabeled Parkin constructs with or without pUb; 1H-15N correlation spectra, 293 K; 20 mM Tris–HCl, 120 mM NaCl, 2 mM DTT, pH 7.4; binding read as loss of signals. Conditions: both partners purified.
T1 sequence (P68036 whole entry): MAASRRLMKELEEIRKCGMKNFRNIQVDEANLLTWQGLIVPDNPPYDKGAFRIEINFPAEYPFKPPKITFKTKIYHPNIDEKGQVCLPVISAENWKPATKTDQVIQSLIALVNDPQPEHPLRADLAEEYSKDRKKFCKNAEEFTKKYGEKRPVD
As to B12, the binding result is “binds”.

In the next assay the target is T1, UbcH7 (E2 ubiquitin-conjugating enzyme). Put plainly: ITC; Parkin constructs titrated with UbcH7; 20°C; 50 mM Tris–HCl pH 7.4, 150 mM NaCl, 1 mM TCEP; stoichiometry fixed to 1:1. The note with it: both partners purified.
In turn, B5 yielded a dissociation constant (Kd) above 700000 nM.

For the molecule B13, the dissociation constant Kd is 119000 nM.
